Molecular target: the molecule itself
Assay: SEC; Superose 6 Increase 10/300 GL, 4 °C, 0.5 mL/min, running buffer 50 mM potassium pyrophosphate, 500 mM NaCl, 5% glycerol, 0.1% Tween 20, pH 7.5; elution compared with molecular weight standards; fractions checked by ODC tandem assay, Coomassie staining and western blot

B1: C-terminal Twin-Strep-tagged recombinant human ornithine decarboxylase (ODC) (enzyme, UniProt P11926 1-461, looked up)
chain: MNNFGNEEFDCHFLDEGFTAKDILDQKINEVSSSDDKDAFYVADLGDILKKHLRWLKALPRVTPFYAVKCNDSKAIVKTLAATGTGFDCASKTEIQLVQSLGVPPERIIYANPCKQVSQIKYAANNGVQMMTFDSEVELMKVARAHPKAKLVLRIATDDSKAVCRLSVKFGATLRTSRLLLERAKELNIDVVGVSFHVGSGCTDPETFVQAISDARCVFDMGAEVGFSMYLLDIGGGFPGSEDVKLKFEEITGVINPALDKYFPSDSGVRIIAEPGRYYVASAFTLAVNIIAKKIVLKEQTGSDDEDESSEQTFMYYVNDGVYGSFNCILYDHAHVKPLLQKRPKPDEKYYSSSIWGPTCDGLDRIVERCDLPEMHVGDWMLFENMGAYTVAAASTFNGFQRPTIYYVMSGPAWQLMQQFQNPDFPPEVEEQDASTLPVSCAWESGMKRHRAACASASINV
notes: Cloning sites may add a few linker residues between ODC and the 3C site; also called human ODC; ODC1; source: Expi293F cells, transiently transfected, purified (Strep-Tactin chromatography, size-exclusion chromatography); not shown: Avi tag (preceded by an HRV 3C protease site), C-terminal, kept; Twin-Strep, C-terminal, kept
  stoichiometry N: 2
